{
  "source": "patent US10815297B2",
  "about": "“Antagonists of IL17C for the treatment of inflammatory disorders” (MorphoSys AG, priority 2011, dated 2020)",
  "key": {"[1]": {"system": "mouse CIA model (DBA1/J mice)", "assay": "Mouse collagen induced arthritis (CIA) model, therapeutic protocol", "type": "in vivo", "conditions": "10 mg/kg, 3x week, i.p., day 31 to day 46", "procedure": "DBA1/J mice (male, 6-7 weeks old, approx 20 gram) were obtained from Centre d'Elevage Regional Janvier (Laval, France). Mice were kept on a 12 hr light/dark cycle (0700-1900). Temperature was maintained at 22° C., and food and water were provided ad libitum.\nOne day before the experiment, CII solution (2 mg/mL) was prepared with 0.05 M acetic acid and stored at 4° C. Just before the immunization, equal volumes of adjuvant […] and CII were mixed by a homogenizer in a pre-cooled glass bottle in an ice water bath. Extra adjuvant and prolonged homogenization may be required if an emulsion is not formed. 0.1 mL of the emulsion was injected intradermally at the base of the tail of each mouse on day 1, a second booster intradermal injection (CII solution at 2 mg/mL in […] 0.1 mLemulsion) was performed on day 21. This immunization method was modified from published methods (Brand et al, 2007, Collagen-induced arthritis. Nature Protocols; vol 2 (5): 1269-1275; Lin et al., 2007, Anti-rheumatic activities of histone deacetylase (HDAC) inhibitors in vivo in collagen-induced arthritis in rodents. Br J Pharmacol. April; 150 (7):829-31).\nThe therapeutic effects of the antibodies were tested in the mouse CIA model. Mice were randomly divided into equal groups and each group contained 10 mice. All mice were immunized on day 1 and boosted on day 21. Therapeutic dosing lasted from day 31 to day 46. The negative control group was treated with vehicle (PBS) and the positive control group with Enbrel (10 mg/kg, 3× week, i.p.). An antibody of interest was tested at 10 mg/kg, i.p. 3 times per week.\nAnti-IL17C antibodies were administered i.p. three times a week at 10 mg/kg. […]\nArthritis was scored according to the method of Khachigian 2006 (Collagen antibody-induced arthritis. (2006) Nature Protocols 1, 2512-6), Lin et al 2007 (supra); Nishida et al. 2004 (Histone deacetylase inhibitor suppression of autoantibody-mediated arthritis in mice via regulation of p16INK4a and p21(WAF1/Cip1) expression. Arthritis Rheum. 10: 3365-76); and Brand et al. 2007 (supra). […]"}, "[2]": {"system": "Balb/c N mice, IMQ induced psoriasis", "assay": "Imiquimod (IMQ) psoriasis-like mouse model", "type": "in vivo", "conditions": "10 mg/kg i.p., 3 days before and at D0", "excerpt": "The pro-inflammatory function of IL17C in the skin was examined in a non-infectious cutaneous inflammation mouse model of psoriasis where topical TLR7-TLR8 agonist Imiquimod induces psoriatic skin lesions characterized by epidermal proliferation and leukocyte infiltration, which are dependent on pathogenic TH17 cytokines (Van der Fits et al., J of Immunol. 2009 May 1; 182(9):5836-45.). The role of IL17C in this particular model was recently documented (Ramirez-Carrozzi et al, Nat Immunol. 2011 12(12):1159-66) and a convincing genetic proof of the IL17C role in the disease model was provided with IL17C^−/− mice. […]\nIn order to induce a psoriatic-like response, a daily topical dose of 62.5 mg of Imiquimod cream on the shaved back and the right ear for 5 consecutive days (D0-D4), translating in a daily dose of 3.13 mg of the active compound. The control group was constituted with mice receiving the same quantity of Vaseline cream. […] Body weight was daily recorded. At necropsy and at the days indicated, the ears and the back skin thicknesses were measured using a micrometer (Mitutoyo). […] Spleen and thymus weight was measured.\nMice were randomly divided into equal groups (n=10). […] The control group was constituted with control mice receiving the same quantity of Vaseline. […]"}},
  "data": [
    {"molecule": "MOR12743: anti-mouse IL17C HuCAL antibody; CDRs SEQ ID NO: 31-36, VL 37, VH 38; human/mouse chimeric IgG2a (antibody, V domains shown, mouse IgG2a constant regions; VH; VL) VH: QVQLVQSGAEVKKPGASVKVSCKASGYTFTSNFIHWVRQAPGQGLEWMGWISPYNGDTNYAQKFQGRVTMTRDTSISTAYMELSRLRSEDTAVYYCARESVYYGSDYGYNGMDIWGQGTLVTVSS VL: DIELTQPPSVSVSPGQTASITCSGDNLGEEYVSWYQQKPGQAPVLVIYDDTKRPSGIPERFSGSNSGNTATLTISGTQAEDEADYYCASWDLWSVEVFGGGTKLTVLGQ", "values": [
      {"measurement": "inhibition of inflammation / disease progression (clinical score)", "setting": "[1]", "result": "significant inhibition"},
      {"measurement": "effect on epidermal thickness induced by IMQ in the mouse ear skin (histology)", "setting": "[2]", "result": "significant"}
    ]}
  ]
}
